Test results reported in publication PMC3406929.

Biological target: 1JO8-ZM109 (V1/V2 of HIV-1 strain ZM109 in the 1JO8 scaffold) (not stated | HIV-1 strain ZM109)

B1: antibody PG9 (antibody, V domains shown)
VH: QRLVESGGGVVQPGSSLRLSCAASGFDFSRQGMHWVRQAPGQGLEWVAFIKYDGSEKYHADSVWGRLSISRDNSKDTLYLQMNSLRVEDTATYFCVREAGGPDYRNGYNYYDFYDGYYNYHYMDVWGKGTTVTVSS
VL: QSALTQPASVSGSPGQSITISCNGTSNDVGGYESVSWYQQHPGKAPKVVIYDVSKRPSGVSNRFSGSKSGNTASLTISGLQAEDEGDYYCKSLTSTRRRVFGTGTKLTVL
How did the fold lower affinity than for wild-type ZM109 gp120 turn out when B1 was run?
Its fold lower affinity than for wild-type ZM109 gp120 is 3 fold.
